Assay results taken from patent US20230203100A1, “COMPOSITIONS INCLUDING MULTI-AGONIST PEPTIDES AND METHODS OF MANUFACTURE AND USE” (Pep2Tango Therapeutics Inc., priority 2021, published 2023).
Where two headings read alike, the source gives them in different places. Starred links: 1 amine or outer side, 2 acyl side, 3 side chain; linkers in the order of their positions; H or OH if unused. Non-standard residues stand in square brackets, D forms with d. Groups on a side chain read outwards from the residue. γGlu = O=C(O)[C@H](CCC(=O)[*:2])N[*:1]; C(:O)(CH2)nR3 = not defined here; Aib = CC(C)(N)C(=O)O

B1: Peptide No. 15 (peptide)
peptide: Y[dA]EGTFTSDYSIALDKIAQQAFVQWLLAGGPSCNTATCVLGRLSQELHRLQTYPRTNTGK([γGlu-γGlu-C(:O)(CH2)nR3])NTY-NH2
modifications: reading uncertain; also: K* n and R3 not given here, acetate salt
B2: Peptide No. 17 (peptide)
peptide: [dY]AEGTFTSDYSIALDKIAQQAFVQWLLAGGPSCNTATCVLGRLSQELHRLQTYPRTNTGK([γGlu-γGlu-C(:O)(CH2)nR3])NTY-NH2
modifications: reading uncertain; also: K* n and R3 not given here, acetate salt
B3: Peptide No. 19 (peptide)
peptide: [dY]AEGTFTSDYSIQLDKIAQQAFVQWLLAGGPSCNTATCVLGRLSQELHRLQTYPRTNTGK([γGlu-γGlu-C(:O)(CH2)nR3])NTY-NH2
modifications: reading uncertain; also: K* n and R3 not given here, acetate salt
B4: Peptide No. 21 (peptide)
peptide: [dY]AEGTFTSDYSIQLDKIAQQAFVQWLLAGSGCNTATCVLGRLSQELHRLQTYPRTNTGK([γGlu-γGlu-C(:O)(CH2)nR3])NTY-NH2
modifications: reading uncertain; also: K* n and R3 not given here, acetate salt
B5: Peptide No. 22 (peptide)
peptide: [dY]AEGTFTSDYSIQLDKIAQQAFVQWLLAGSGCNTATCATQRLANFLVHSSNNFGPILPPTNVGK([γGlu-γGlu-C(:O)(CH2)nR3])NTY-NH2
modifications: reading uncertain; also: K* n and R3 not given here, acetate salt
B6: Peptide No. 10 (peptide)
peptide: Y[Aib]EGTFTSDYSI[Aib]LDKIAQK([γGlu-γGlu-C(:O)(CH2)nR3])AFVQWLLAGGPSCNTATCATQRLANFLVHSSNNFGPILPPTNVGSNTY-NH2
modifications: reading uncertain; also: K* acyl n and R3 not given here, acetate salt, printed as Y-Aib-E-G-T-F-T-S-D-Y-S-I-Aib-L-D-K-I-A-Q-K*-AFVQWLLAGGPSCNTATCATQRLANFLVHSSNNFGPILPPTNVGSNTY-NH2
B7: (d)YAEGTFTSDYSIALDKIAQQAFVQWLLAGGPSCNTATCVLGRLSQELHRLQTYPRTNTGK*-N-T-Y-NH2 (peptide)
chain: [dY]AEGTFTSDYSIALDKIAQQAFVQWLLAGGPSCNTATCVLGRLSQELHRLQTYPRTNTGKNTY-NH2
modifications: not fully specified (residue 60); also: acyl end R3 and chain length n (12-20) not fixed
notes: K* indicates a linking group, e.g. Lys-γGlu-γGlu—C(═O)(CH2)nR3

What was measured:
[1] = biological target: Human GLP-1 receptor (human) (UniProt P43220)
[2] = cited from earlier work
[3] = in vivo; cited from earlier work
Human GLP-1 receptor = Human GLP-1 receptor (human, UniProt P43220); test: cell-based or functional assay
Human GIP receptor = biological target: T1, Human GIP receptor (human, UniProt P48546); test: cell-based or functional assay
T1 sequence: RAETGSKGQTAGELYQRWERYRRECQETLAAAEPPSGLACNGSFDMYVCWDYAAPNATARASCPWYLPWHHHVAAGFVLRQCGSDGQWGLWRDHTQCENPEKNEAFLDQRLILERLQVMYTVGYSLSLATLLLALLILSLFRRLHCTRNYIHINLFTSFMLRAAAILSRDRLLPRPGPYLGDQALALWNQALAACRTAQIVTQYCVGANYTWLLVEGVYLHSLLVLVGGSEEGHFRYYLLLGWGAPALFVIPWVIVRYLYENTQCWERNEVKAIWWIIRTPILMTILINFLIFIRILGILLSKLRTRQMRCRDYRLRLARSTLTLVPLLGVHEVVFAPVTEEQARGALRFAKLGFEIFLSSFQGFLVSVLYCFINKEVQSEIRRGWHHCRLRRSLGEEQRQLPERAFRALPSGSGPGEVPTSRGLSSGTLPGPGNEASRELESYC

[4] = biological target: T2, Human calcitonin receptor (human, UniProt P30988); test: cell-based or functional assay
T2 sequence: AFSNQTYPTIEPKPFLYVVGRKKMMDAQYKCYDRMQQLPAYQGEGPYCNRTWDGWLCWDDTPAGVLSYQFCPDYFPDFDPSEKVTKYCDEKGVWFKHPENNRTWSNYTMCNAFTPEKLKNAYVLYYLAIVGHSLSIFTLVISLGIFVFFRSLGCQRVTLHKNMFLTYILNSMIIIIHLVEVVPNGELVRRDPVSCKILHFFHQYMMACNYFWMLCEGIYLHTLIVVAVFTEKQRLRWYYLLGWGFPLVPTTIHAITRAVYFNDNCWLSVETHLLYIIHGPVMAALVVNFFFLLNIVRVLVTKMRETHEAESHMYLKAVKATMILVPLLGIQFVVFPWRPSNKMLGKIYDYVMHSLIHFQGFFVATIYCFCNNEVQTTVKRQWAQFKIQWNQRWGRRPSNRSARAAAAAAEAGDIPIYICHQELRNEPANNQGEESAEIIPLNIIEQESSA

[5] = biological target: T3, Human AMY3 receptor (CT/RAMP3) (human, UniProt P30988); test: cell-based or functional assay
T3 sequence 1: T2 sequence
T3 sequence 2: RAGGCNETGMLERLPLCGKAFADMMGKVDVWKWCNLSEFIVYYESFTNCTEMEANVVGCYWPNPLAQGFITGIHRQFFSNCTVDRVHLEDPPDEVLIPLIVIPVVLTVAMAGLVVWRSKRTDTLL

[6] = Body weight in lean rats after single s.c. administration; type: in vivo, Sprague Dawley male rats; conditions: mean±SEM
Procedure: (§2) Sprague Dawley male rats (5 weeks of age) were purchased from Charles River (Spain) and single housed for individual registration of food consumption. […] Rats were fed ad libitum a standard rodent chow diet (CHD) (A04, U8220G10R, SAFE).
(§3) For all experimental groups, food was replaced immediately after lights were turned off.
(§4) Food intake was measured at different time-intervals post-injection up to 72 h using a precision balance. Cumulative food intake was calculated for the indicated time-periods. Body weight was measured at the indicated time-periods. Mean accumulated food intake in each dose group was compared to vehicle and reported as a percentage of mean food intake in the vehicle group, which was defined as 100%.
(§5) All data shown are the mean ± standard error (SEM).

[7] = Acute food intake in lean mice after single s.c. administration; type: in vivo, C57BL/6j male mice; conditions: 50 nmoles/kg single s.c., time period not given, mean±SEM
Procedure: (§1) Differences were considered statistically significant at p<0.05. Data analysis was carried out with GraphPad software (GraphPad Prism).

[8] = Blood glucose after single s.c. administration in non-fasted mice; type: in vivo; conditions: 50 nmoles/Kg single s.c., mean±SEM
Procedure: as §1

[9] = Acute food intake in lean rats after single s.c. administration; type: in vivo, Sprague Dawley male rats; conditions: 50 nmoles/kg single s.c., mean +/- SEM
Procedure: as §2, §3, §4, §5

| Molecule | EC50 (nM), cAMP cell-based agonist assay (Human GLP-1 receptor) | EC50 (nM), cAMP cell-based agonist assay (Human GIP receptor) | EC50 (nM), cAMP cell-based agonist assay [4] | EC50 (nM), cAMP cell-based agonist assay [5] | other results |
| --- | --- | --- | --- | --- | --- |
| Exendin-4 (from UniProt P26349) (ligand) |  |  |  |  | EC50 (nM), cAMP cell-based agonist assay [1]: 0.007 nM |
| CC[C@H](C)[C@H](NC(=O)[C@H](CO)NC(=O)[C@H](Cc1ccc(O)cc1)NC(=O)[C@H](CC(=O)O)NC(=O)[C@H](CO)NC(=O)[C@@H](NC(=O)[C@H](Cc1ccccc1)NC(=O)[C@@H](NC(=O)CNC(=O)[C@H](CCC(=O)O)NC(=O)[C@H](C)NC(=O)[C@@H](N)Cc1ccc(O)cc1)[C@@H](C)O)[C@@H](C)CC)C(=O)N[C@@H](C)C(=O)N[C@@H](CCSC)C(=O)N[C@@H](CC(=O)O)C(=O)N[C@@H](CCCCN)C(=O)N[C@H](C(=O)N[C@@H](Cc1c[nH]cn1)C(=O)N[C@@H](CCC(N)=O)C(=O)N[C@@H](CCC(N)=O)C(=O)N[C@@H](CC(=O)O)C(=O)N[C@@H](Cc1ccccc1)C(=O)N[C@H](C(=O)N[C@@H](CC(N)=O)C(=O)N[C@@H](Cc1c[nH]c2ccccc12)C(=O)N[C@@H](CC(C)C)C(=O)N[C@@H](CC(C)C)C(=O)N[C@@H](C)C(=O)N[C@@H](CCC(N)=O)C(=O)N[C@@H](CCCCN)C(=O)NCC(=O)N[C@@H](CCCCN)C(=O)N[C@@H](CCCCN)C(=O)N[C@@H](CC(N)=O)C(=O)N[C@@H](CC(=O)O)C(=O)N[C@@H](Cc1c[nH]c2ccccc12)C(=O)N[C@@H](CCCCN)C(=O)N[C@@H](Cc1c[nH]cn1)C(=O)N[C@@H](CC(N)=O)C(=O)N[C@H](C(=O)N[C@H](C(=O)N[C@@H](CCC(N)=O)C(=O)O)[C@@H](C)O)[C@@H](C)CC)C(C)C)[C@@H](C)CC [GIP, glucose-dependent insulinotropic polypeptide] |  |  |  |  | half-life of intact GIP ([2]; diabetic subjects): ~5.2 min; half-life of intact GIP ([2]; healthy subjects): approximately 7.3 minutes |
| glucagon-like peptide-1 [GLP-1] |  |  |  |  | metabolic clearance rate of active GLP-1 [3]: 12 to 13 min |
| B1 | 5.2 nM | 0.13 nM | 0.071 nM | 1.1 nM |  |
| B2 | 5.7 nM | 0.81 nM | 0.1 nM | 1.3 nM |  |
| B3 | 8.23 nM | 4.6 nM | 0.1 nM | 1.03 nM |  |
| B4 | 43 nM | 20 nM | 0.11 nM | 1.6 nM |  |
| B5 | 42 nM | 16 nM | 5.78 nM | 15 nM |  |
| B6 | 3.87 nM | 0.05 nM | 12.4 nM | 7 nM |  |
| B7 |  |  |  |  | Body Weight Reduction (G) 24 h ([6]; 24 h): -9.0 ± 1.01 g; Body Weight Reduction (G) 48 h ([6]; 48 h): -13.0 ± 0.84 g; Body Weight Reduction (G) 72 h ([6]; 72 h): -14.8 ± 1.30 g; Cumulative Food Intake Reduction Relative to Vehicle (%) ([7]; 1st of 4 value columns): 20.5±0.86%; Cumulative Food Intake Reduction Relative to Vehicle (%) ([7]; 2nd of 4 value columns): 25.3±1.93%; Cumulative Food Intake Reduction Relative to Vehicle (%) ([7]; 3rd of 4 value columns): 12.2±4.03%; Cumulative Food Intake Reduction Relative to Vehicle (%) ([7]; 4th of 4 value columns): 2.6±5.68%; Blood glucose 30 min ([8]; 30 min after injection): 140.4 ± 8.41 mg/dL; Blood glucose 120 min ([8]; 120 min after injection): 138.4 ± 1.63 mg/dL; Blood glucose Time 0 ([8]; time 0 (baseline)): 159.6 ± 5.78 mg/dL; Cumulative Food Intake Reduction vs. Vehicle (%) 12 hr. ([9]; cumulative to 12 hr.): 21.8 +/- 2.62%; Cumulative Food Intake Reduction vs. Vehicle (%) 24 hr. ([9]; cumulative to 24 hr.): 31.8 +/- 2.10%; Cumulative Food Intake Reduction vs. Vehicle (%) 48 hr. ([9]; cumulative to 48 hr.): 32.3 +/- 1.66%; Cumulative Food Intake Reduction vs. Vehicle (%) 72 hr. ([9]; cumulative to 72 hr.): 28.7 +/- 1.69%; Food Intake Reduction by Intervals vs. Vehicle (%) 0-12 hr. ([9]; interval 0-12 hr.): 21.8 +/- 2.62%; Food Intake Reduction by Intervals vs. Vehicle (%) 12-24 hr. ([9]; interval 12-24 hr.): 89.1 +/- 3.69%; Food Intake Reduction by Intervals vs. Vehicle (%) 24-48 hr. ([9]; interval 24-48 hr.): 32.8 +/- 3.69%; Food Intake Reduction by Intervals vs. Vehicle (%) 48-72 hr. ([9]; interval 48-72 hr.): 19.4 +/- 2.31% |
